Data as given in publication PMC11530851.

B1: dsRNA (ss poly(A) + Css27) (dsRNA)
RNA 1: CCCCACCACCAUCACUUAAAAAAAAAA
RNA 2: UUUUUUUUUUAAGUGAUGGUGGUGGGG

Target: SKIV2L (hSKI complex subunit);TTC37 (hSKI complex subunit);WDR61 (hSKI complex subunit) (human;human;human, UniProt Q15477;Q6PGP7;Q9GZS3 1-1246;1-1564;1-305, ||)
Experiment: EMSA; 2 mM Mg2+; 25 mM Hepes-KOH pH 7.6, 2 mM Mg acetate, 50 mM NaCl, 1 mM DTT, 0.1 mg/ml BSA, 1 nM substrate, 37 C 30 min; 0.7% agarose gel at 4 C

| Binder | binding result | Kd [nM] |
| --- | --- | --- |
| CCCCACCACCAUCACUUAAAAAAAAAA (ssRNA) [ss poly(A)] | binds | – |
| B1 | no binding | – |
| CCCCACCACCATCACTTAAAAAAAAAA (ssDNA) [ss poly(A) DNA] | binds | – |
| AGCGTATCCGTTCAGTTG (ssDNA) [Non-TEL18] | – | 30 |
| GGTTAGGGTTAGGGTTAG (ssDNA) [TEL18] | – | 12 |
